Experimental data as given in patent US20250388704A1 (Xencor, published 2025).
One block for each binder: values may come before it.

Key:
[1] = target: T1, human PSMA on the surface of prostate cancer cell lines (C42B / C42B-NLR, 22Rv1 / 22Rv1-NLR, PSMA-transfected … (human, UniProt Q04609 1-750)); experiment: flow cytometry on 22Rv1-NLR (PSMA med) cells, 30 min at 37 degrees, detection with anti-human-Ig-FITC
T1 construct: whole, on cells; also called Prostate Specific Membrane Antigen

[2] = target: T2, CD28 antigen used for the affinity determinations (human, UniProt P10747 19-152, limits assumed); experiment: CD28 binding affinity of the scFv arm, told in a figure legend; method not stated
T2 construct: Octet/BLI is described only for the bivalent mAbs

[3] = target: T1, human PSMA on the surface of prostate …; experiment: binding to C4-2B (C42B, PSMA^hi) cells, MFI against concentration, least squares fit
[4] = target: T2, CD28 antigen used for the affinity …; experiment: CD28 binding affinity of the scFv arm; method not stated
[5] = target: T2, CD28 antigen used for the affinity …; experiment: CD28 binding affinity of the scFv arm; method not stated; assigned to XENP40470 by elimination
[6] = target: T3, human CD28 on the surface of human PBMCs / T cells (human, UniProt P10747 19-220); experiment: flow cytometry on human PBMCs, 1 h at 4 C, detected with Alexa Fluor 647 anti-human IgG Fc secondary
T3 construct: whole, on cells; Endogenous CD28 on human PBMCs (flow cytometry) and on T cells (functional assays); also called cell-surface CD28
From the text: Binding of the phage-derived bivalent mAbs to cell-surface CD28 was investigated.

Kd [4]: 1000 nM
B3: XENP39231 (bispecific antibody)
heavy: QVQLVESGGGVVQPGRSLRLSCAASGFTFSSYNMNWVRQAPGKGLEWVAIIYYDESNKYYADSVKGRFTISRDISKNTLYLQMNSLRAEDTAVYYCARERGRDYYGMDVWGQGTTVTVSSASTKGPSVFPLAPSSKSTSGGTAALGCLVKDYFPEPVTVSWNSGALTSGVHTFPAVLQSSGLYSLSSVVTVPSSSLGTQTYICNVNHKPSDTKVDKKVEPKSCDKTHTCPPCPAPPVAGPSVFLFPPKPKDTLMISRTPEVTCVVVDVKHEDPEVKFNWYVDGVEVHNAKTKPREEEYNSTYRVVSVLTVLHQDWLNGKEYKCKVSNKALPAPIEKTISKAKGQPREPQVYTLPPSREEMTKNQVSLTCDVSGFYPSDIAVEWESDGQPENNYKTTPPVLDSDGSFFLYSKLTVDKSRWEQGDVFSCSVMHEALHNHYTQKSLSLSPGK
scFv-Fc: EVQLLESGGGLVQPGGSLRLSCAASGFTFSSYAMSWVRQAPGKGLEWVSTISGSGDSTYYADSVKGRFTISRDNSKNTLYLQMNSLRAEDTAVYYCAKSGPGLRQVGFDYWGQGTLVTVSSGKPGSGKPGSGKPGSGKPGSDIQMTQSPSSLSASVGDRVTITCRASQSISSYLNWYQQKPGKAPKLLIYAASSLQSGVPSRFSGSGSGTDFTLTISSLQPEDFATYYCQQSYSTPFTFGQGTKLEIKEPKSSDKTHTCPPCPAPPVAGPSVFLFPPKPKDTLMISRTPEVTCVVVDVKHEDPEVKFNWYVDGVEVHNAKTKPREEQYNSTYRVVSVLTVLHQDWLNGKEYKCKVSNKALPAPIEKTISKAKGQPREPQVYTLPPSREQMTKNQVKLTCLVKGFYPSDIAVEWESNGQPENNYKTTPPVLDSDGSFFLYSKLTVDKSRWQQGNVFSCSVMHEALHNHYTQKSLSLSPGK
light: SYELMQPPSVSVSPGQTARITCSGDALPKQYAYWYQQKPGQAPVLVIYKDSERPSGIPVRFSGSSSGTTVTLTITGVQAEDEADYYCQSADSSGTYVFGTGTKVTVLGQPKAAPSVTLFPPSSEELQANKATLVCLISDFYPGAVTVAWKADSSPVKAGVETTTPSKQSNNKYAASSYLSLTPEQWKSHRSYSCQVTHEGSTVEKTVAPTECS
notes: also called PSMA x CD28 1 uM

Kd [5]: 600 nM
B4: XENP40470 (bispecific antibody)
heavy: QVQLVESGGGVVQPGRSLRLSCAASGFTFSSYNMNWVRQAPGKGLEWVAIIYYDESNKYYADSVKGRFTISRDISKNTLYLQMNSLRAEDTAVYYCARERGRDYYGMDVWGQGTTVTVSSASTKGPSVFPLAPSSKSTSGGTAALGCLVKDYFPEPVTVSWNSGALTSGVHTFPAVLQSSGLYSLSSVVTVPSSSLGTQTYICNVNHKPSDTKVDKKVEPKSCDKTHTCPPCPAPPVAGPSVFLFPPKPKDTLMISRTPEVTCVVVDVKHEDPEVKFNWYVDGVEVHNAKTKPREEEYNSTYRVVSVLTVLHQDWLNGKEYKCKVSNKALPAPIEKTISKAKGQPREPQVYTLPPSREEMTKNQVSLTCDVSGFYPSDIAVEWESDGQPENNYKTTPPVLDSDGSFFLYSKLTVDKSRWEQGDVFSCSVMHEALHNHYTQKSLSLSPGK
scFv-Fc: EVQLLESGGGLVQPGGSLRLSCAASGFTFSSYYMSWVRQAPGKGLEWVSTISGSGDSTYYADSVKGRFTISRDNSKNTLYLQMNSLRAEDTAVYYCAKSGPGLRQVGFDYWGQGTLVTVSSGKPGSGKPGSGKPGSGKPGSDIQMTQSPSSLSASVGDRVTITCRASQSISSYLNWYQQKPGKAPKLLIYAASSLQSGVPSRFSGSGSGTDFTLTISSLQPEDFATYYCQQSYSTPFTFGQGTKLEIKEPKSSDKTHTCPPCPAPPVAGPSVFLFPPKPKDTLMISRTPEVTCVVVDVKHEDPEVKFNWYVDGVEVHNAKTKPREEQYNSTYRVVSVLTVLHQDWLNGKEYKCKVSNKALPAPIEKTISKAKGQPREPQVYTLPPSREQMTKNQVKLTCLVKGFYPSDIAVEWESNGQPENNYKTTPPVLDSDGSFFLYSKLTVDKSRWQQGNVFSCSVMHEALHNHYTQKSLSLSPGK
light: B3 light
notes: Assigned to the 600 nM domain by elimination, because XENP39231 is told to be 1000 nM

binding result [6]: binds
B5: XENP27181 (antibody, V domains shown)
VH: QVQLQESGPGLVKPSETLSLTCAVSGFSLTSYGVHWIRQPPGKGLEWLGVIWPGGGTNFNSALMSRLTISEDTSKNQVSLKLSSVTAADTAVYYCARDRAYGNYLYAMDYWGQGTLVTVSS
VL: DIQMTQSPSSLSASVGDRVTITCRASESVEYYVTSLMQWYQQKPGKAPKLLIYAASNVDSGVPSRFSGSGSGTDFTLTISSLQPEDIATYYCQQSRKVPFTFGGGTKVEIKR
notes: Bivalent anti-CD28 mAb; also called HuTN228; prior art anti-CD28 mAb HuTN228; copies: 2 + 2

The remaining lines, values behind:

B1: PSMA x CD28 bsAb with A10 PSMA binding domain and 1A7_H1_L1.71 CD28 binding domain (Platform X) (bispecific antibody)
heavy: not shown
scFv-Fc: not shown
light: B3 light
EC50 (read off the curve) [1]: ~0.06 µg/mL

B2: XENP38936 (bispecific antibody)
heavy: not shown
scFv-Fc: not shown
light: B3 light
notes: also called PSMA x CD28 180 nM
Kd [2]: 180 nM | EC50 (read off the curve) [3]: ~2 nM
